In assay [1] the target is Protein S (Homo sapiens) (UniProt P07225). To be noted: cited from earlier work.
In assay [2] the target is PRP6-HO7 (Proline-rich Protein domain CCP6 heptamerized) (human) (UniProt P04003). Nature of the assay: SDS-PAGE under reducing and non-reducing conditions; 4-12% gradient SDS-PAGE of the purified proteins, Coomassie (Blue Safe) staining and Western blot with anti-6xHis and anti-C4BP α-chain antibodies; reduced against non-reduced size.

UniProt P07225, sequence (P07225 42-676): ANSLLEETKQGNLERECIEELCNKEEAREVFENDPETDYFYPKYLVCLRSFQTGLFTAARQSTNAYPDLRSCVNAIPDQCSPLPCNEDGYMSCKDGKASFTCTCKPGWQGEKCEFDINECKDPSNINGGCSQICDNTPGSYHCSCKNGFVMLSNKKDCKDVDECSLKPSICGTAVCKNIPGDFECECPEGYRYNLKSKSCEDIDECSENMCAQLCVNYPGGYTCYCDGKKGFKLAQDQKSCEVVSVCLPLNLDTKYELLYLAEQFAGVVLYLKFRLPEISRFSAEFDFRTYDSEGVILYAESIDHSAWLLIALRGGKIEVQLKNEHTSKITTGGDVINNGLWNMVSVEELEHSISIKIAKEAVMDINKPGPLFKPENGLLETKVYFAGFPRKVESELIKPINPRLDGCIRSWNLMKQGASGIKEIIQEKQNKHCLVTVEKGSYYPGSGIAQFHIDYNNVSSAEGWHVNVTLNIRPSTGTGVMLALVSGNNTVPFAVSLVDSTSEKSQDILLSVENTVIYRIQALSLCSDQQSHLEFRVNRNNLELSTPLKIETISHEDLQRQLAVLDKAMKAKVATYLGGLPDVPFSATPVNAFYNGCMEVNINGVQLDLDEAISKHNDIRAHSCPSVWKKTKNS

What is called Kd is the concentration at which binding is half-saturated. Regarding “C4BP beta-chain CCP1 (from UniProt P20851)”, the Kd in assay [1] is 0.1 nM.

In general, stoichiometry N refers to the number of molecules, sites or subunits per partner or assembly. “PRP6-HO7 (Proline-rich Protein domain CCP6 heptamerized) (from UniProt P04003 540-597)” gave a stoichiometry N in assay [2] of 7.

The values are drawn from publication PMC9084231.
